Several values for one entry are separate records, joined by “and”; a condition that tells them apart may be missing. Equal values may be shown once.
Target: Recombinant Mip (25 kDa) (L. pneumophila) (UniProt Q5ZXE0)
Experiment: co-IP

| Substance | antibody signal from Western blot (ImageJ) (relative units) | band intensity in Coomassie stained gel (ImageJ) (relative units) | band intensity at 15 kDa in Coomassie stained gel (ImageJ) (relative units) |
| --- | --- | --- | --- |
| Flagellin FlaA (LPC_0756), native (natural protein) | 4380 and 4310 | 5680 and 5740 | – |
| Lpc2061-6xHis-Tag (natural protein) | 4690 and 4520 | 1900 and 795 | 4600 and 7390 |
| SspB-Strep-TagII (natural protein) | 5030 and 5180 | 4300 and 4240 | – |

From article PMC9670971
